Substrate in the data set: NCc1ccccc1
In words: purified protein. It counts as biochemical, Homo sapiens. Conditions: 30 μM MAO-B [sic], 50 mM HEPES pH 7.5, 0.5% Triton X-100, 25 °C.

B1: MAO-B (Homo sapiens) (protein)
chain: SNKCDVVVVGGGISGMAAAKLLHDSGLNVVVLEARDRVGGRTYTLRNQKVKYVDLGGSYVGPTQNRILRLAKELGLETYKVNEVERLIHHVKGKSYPFRGPFPPVWNPITYLDHNNFWRTMDDMGREIPSDAPWKAPLAEEWDNMTMKELLDKLCWTESAKQLATLFVNLCVTAETHEVSALWFLWYVKQCGGTTRIISTTNGGQERKFVGGSGQVSERIMDLLGDRVKLERPVIYIDQTRENVLVETLNHEMYEAKYVISAIPPTLGMKIHFNPPLPMMRNQMITRVPLGSVIKCIVYYKEPFWRKKDYCGTMIIDGEEAPVAYTLDDTKPEGNYAAIMGFILAHKARKLARLTKEERLKKLCELYAKVLGSLEALEPVHYEEKNWCEEQYSGGCYTTYFPPGILTQYGRVLRQPVDRIYFAGTETATHWSGYMEGAVEAGERAAREILHAMGKIPEDEIWQSEPESVDVPAQPITTTFLERHLPSVPGLLRLIGLTTIFSATALGFLAHKRGLLVRV
notes: FAD enzyme; PDB 2V5Z was only the docking model
As for B1, the Km – broadly, the concentration of substrate that gives half-maximal velocity – was 140 ± 30 µM.

The values are drawn from publication PMC10952593, “Synthetic cannabinoid receptor agonists are monoamine oxidase‐A selective inhibitors” (The Febs Journal, 2023).
